For 2 substances, stoichiometry N results are on record in article PMC7815755.

Assay [1] concerns the target Immunity-related GTPase B10 (IRGB10), mouse, full length, wild type (mouse) (UniProt Q0GUM3). The assay can be described thus: SEC-MALS; third peak of the first SEC, Superdex 200 10/300, 20 mM Tris-HCl pH 8.0, 150 mM NaCl, room temperature, no GTP added. (Size exclusion chromatography separates by hydrodynamic size, large species first.)
For assay [2], the target named is IRGB10 D185R mutant (head-to-head dimer disruption mutant) (mouse) (UniProt Q0GUM3). The assay can be described thus: SEC-MALS; tentative dimer peak of the head-to-head disruption mutants (Fig. 3e, g).

“Immunity-related GTPase B10 (IRGB10), mouse, full length, wild type (from UniProt Q0GUM3 1-417) (natural protein)”: the stoichiometry N in assay [1] came out at 2.

In assay [2], “IRGB10 D185R mutant (head-to-head dimer disruption mutant) (from UniProt Q0GUM3 1-417) (natural protein)” displayed a stoichiometry N of 2.

Usually stoichiometry N stands for a count of units in the complex or per binding partner.
